Results: the supplement of paper PMC5998384

Key:
HeLa Kyoto [1] = test: solubility change mitosis vs G1/S (difference of NP-40 vs SDS log2 ratios) (log2 ratio difference); higher = more soluble in mitosis
HeLa Kyoto [2] = test: melting temperature (median over replicates), in situ; higher = more thermally stable
HeLa Kyoto [3] = test: solubility in G1/S (NP-40 vs SDS abundance) (log2 ratio); higher = more soluble; settings: cell cycle stage: G1/S
HeLa Kyoto [4] = test: thermal stability score vs G1/S (z-score of summed log2 fold changes over temperatures); higher = more thermally stable than in G1/S
[5] = cell cycle stage: early G1 (4.5 h after nocodazole release)
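For melting temperature (median over replicates), in situ in this document: HeLa Kyoto cells synchronized by double thymidine or nocodazole block, proteins quantified by TMT10plex mass spectrometry, three independent biological replicates.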
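For solubility change mitosis vs G1/S (difference of NP-40 vs SDS log2 ratios) in this document: synchronized HeLa Kyoto cells (double thymidine block for G1/S, nocodazole release for mitosis), protein amounts in NP-40 versus SDS lysates quantified by mass spectrometry, three biological replicates.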
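For solubility in G1/S (NP-40 vs SDS abundance) in this document: HeLa Kyoto cells arrested at G1/S by double thymidine block, proteins quantified by TMT10plex mass spectrometry in mild NP-40 versus SDS extracts, three biological replicates.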
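For thermal stability score vs G1/S (z-score of summed log2 fold changes over temperatures) in this document: synchronized HeLa Kyoto cells, proteins quantified by TMT10plex mass spectrometry, three biological replicates, mitosis taken 0.5 h after nocodazole release, G1/S directly after double thymidine block.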

Row | Sequence | solubility change mitosis (log2) (HeLa Kyoto [1]) | melting temperature (HeLa Kyoto [2]; cell cycle stage: G1/S) | melting temperature (HeLa Kyoto [2]; cell cycle stage: mitosis) | solubility in G1/S (log2) (HeLa Kyoto [3]) | thermal stability score (HeLa Kyoto [4]; [5]) | thermal stability score (HeLa Kyoto [4]; cell cycle stage: mitosis)
1 | MELVAGCYEQVLFGFAVHPEPEACGDHEQWTLVADFTHHAHTASLSAVAVNSRFVVTGSKDETIHIYDMKKKIEHGALVHHSGTITCLKFYGNRHLISGAEDGLICIWDAKKWECLKSIKAHKGQVTFLSIHPSGKLALSVGTDKTLRTWNLVEGRSAFIKNIKQNAHIVEWSPRGEQYVVIIQNKIDIYQLDTASISGTITNEKRISSVKFLSESVLAVAGDEEVIRFFDCDSLVCLCEFKAHENRVKDMFSFEIPEHHVIVSASSDGFIKMWKLKQDKKVPPSLLCEINTNARLTCLGVWLDKVADMKESLPPAAEPSPVSKEQSKIGKKEPGDTVHKEEKRSKPNTKKRGLTGDSKKATKESGLISTKKRKMVEMLEKKRKKKKIKTMQ [PAK1IP1] | 0.614 | 56.5 °C | 53.8 °C | -1.64 | -1.32 | -5.78
2 | MEMFTFLLTCIFLPLLRGHSLFTCEPITVPRCMKMAYNMTFFPNLMGHYDQSIAAVEMEHFLPLANLECSPNIETFLCKAFVPTCIEQIHVVPPCRKLCEKVYSDCKKLIDTFGIRWPEELECDRLQYCDETVPVTFDPHTEFLGPQKKTEQVQRDIGFWCPRHLKTSGGQGYKFLGIDQCAPPCPNMYFKSDELEFAKSFIGTVSIFCLCATLFTFLTFLIDVRRFRYPERPIIYYSVCYSIVSLMYFIGFLLGDSTACNKADEKLELGDTVVLGSQNKACTVLFMLLYFFTMAGTVWWVILTITWFLAAGRKWSCEAIEQKAVWFHAVAWGTPGFLTVMLLAMNKVEGDNISGVCFVGLYDLDASRYFVLLPLCLCVFVGLSLLLAGIISLNHVRQVIQHDGRNQEKLKKFMIRIGVFSGLYLVPLVTLLGCYVYEQVNRITWEITWVSDHCRQYHIPCPYQAKAKARPELALFMIKYLMTLIVGISAVFWVGSKKTCTEWAGFFKRNRKRDPISESRRVLQESCEFFLKHNSKVKHKKKHYKPSSHKLKVISKSMGTSTGATANHGTSAVAITSHDYLGQETLTEIQTSPETSMREVKADGASTPRLREQDCGEPASPAASISRLSGEQVDGKGQAGSVSESARSEGRISPKSDITDTGLAQSNNLQVPSSSEPSSLKGSTSLLVHPVSGVRKEQGGGCHSDT [FZD6] | 0.0773 | 54.7 °C | 55.6 °C | -0.0341 | -1.37 | -2.82
3 | MEMKKKINLELRNRSPEEVTELVLDNCLCVNGEIEGLNDTFKELEFLSMANVELSSLARLPSLNKLRKLELSDNIISGGLEVLAEKCPNLTYLNLSGNKIKDLSTVEALQNLKNLKSLDLFNCEITNLEDYRESIFELLQQITYLDGFDQEDNEAPDSEEEDDEDGDEDDEEEEENEAGPPEGYEEEEEEEEEEDEDEDEDEDEAGSELGEGEEEVGLSYLMKEEIQDEEDDDDYVEEGEEEEEEEEGGLRGEKRKRDAEDDGEEEDD [ANP32E] | 0.1 | 46.5 °C | 50.1 °C | -0.46 | 2.17 | 4.82
4 | MEMTEMTGVSLKRGALVVEDNDSGVPVEETKKQKLSECSLTKGQDGLQNDFLSISEDVPRPPDTVSTGKGGKNSEAQLEDEEEEEEDGLSEECEEEESESFADMMKHGLTEADVGITKFVSSHQGFSGILKERYSDFVVHEIGKDGRISHLNDLSIPVDEEDPSEDIFTVLTAEEKQRLEELQLFKNKETSVAIEVIEDTKEKRTIIHQAIKSLFPGLETKTEDREGKKYIVAYHAAGKKALANPRKHSWPKSRGSYCHFVLYKENKDTMDAINVLSKYLRVKPNIFSYMGTKDKRAITVQEIAVLKITAQRLAHLNKCLMNFKLGNFSYQKNPLKLGELQGNHFTVVLRNITGTDDQVQQAMNSLKEIGFINYYGMQRFGTTAVPTYQVGRAILQNSWTEVMDLILKPRSGAEKGYLVKCREEWAKTKDPTAALRKLPVKRCVEGQLLRGLSKYGMKNIVSAFGIIPRNNRLMYIHSYQSYVWNNMVSKRIEDYGLKPVPGDLVLKGATATYIEEDDVNNYSIHDVVMPLPGFDVIYPKHKIQEAYREMLTADNLDIDNMRHKIRDYSLSGAYRKIIIRPQNVSWEVVAYDDPKIPLFNTDVDNLEGKTPPVFASEGKYRALKMDFSLPPSTYATMAIREVLKMDTSIKNQTQLNTTWLR [PUS7] | -0.141 | 52.3 °C | 52.2 °C | 0.055 | 0.213 | 0.4
